Data set [1] addresses DNase I (Sigma, St. Louis, Mo.).
Data set [2] addresses α-actin purified from rabbit skeletal muscle, globular (G-actin) form, P68135.

B1: highly purified human recombinant ICE (p20/p10) (Merck) (protein)
chain 1: NPAMPTSSGSEGNVKLCSLEEAQRIWKQKSAEIYPIMDKSSRTRLALIICNEEFDSIPRRTGAEVDITGMTMLLQNLGYSVDVKKNLTASDMTTELEAFAHRPEHKTSDSTFLVFMSHGIREGICGKKHSEQVPDILQLNAIFNMLNTKNCPSLKDKPKVIIIQACRGDSPGVVWFKD
chain 2: AIKKAHIEKDFIAFCSSTPDNVSWRHPTMGSVFIGRLIEHMQEYACSCDVEEIFRKVRFSFEQPDGRAQMPTTERVTLTRCFYLFPGH
B1: the “cleavage of DNase I and its endonuclease activity” value in data set [1] is recorded as “Control incubations without actin demonstrated that ICE neither cleaved DNase I nor affected its endonuclease activity”. Besides, the “cleavage of purified actin (SDS-polyacrylamide gel electrophoresis)” value in data set [2] was “In the presence of ICE, actin was cleaved, resulting in a disappearance of the 42 kd band, and the appearance of bands at approximately 41 kd, 30 kd, and 14 kd”.
